Values quoted from earlier work, collected in patent US5389611A, “Lactoferrin hydrolyzate for use as an antibacterial agent and as a tyrosinase inhibition agent” (priority 1990, dated 1995).
Where two headings read alike, the source gives them in different places.

Columns and labels:
[1] = tested on: coliform bacillus (Escherichia coli), staphylococcus and other enterobacteria; conditions: Nonnecke and Smith 1984
[2] = Ford et al 1977

lactoferrin
concentration having antibacterial activity [1]: 0.5 to 30 mg/mL | antibacterial activity after heating ([2]; heating at 62.5° C. for 30 minutes): almost completely suppressed | antibacterial activity after heating ([2]; heating at 70° C. for 15 minutes): complete deactivation
